± gives the standard deviation.
Assay: protein stability index of a GFP-peptide fusion (GPS, HEK-293T) (PSI 1-6); higher = more stable
Details: c terminus: a fixed tail appended
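Further: 24-mer peptide tiles fused after GFP, lentivirally expressed, FACS-sorted into six equal bins by GFP/DsRed ratio, decoded by Illumina sequencing, PSI is the read-weighted mean bin number.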

Sequence TSLEITILTSQPGKEVVKQLEEGL [M1AP] has a protein stability index (treatment: DMSO) of 2.74 ± 0.22 and a protein stability index (treatment: MLN4924 1 uM, 8 h) of 2.68 ± 0.2.
TSNSDDNMLKNIELFDKLSLRFNG [KCTD10] gave a protein stability index (treatment: DMSO) of 3.07 ± 0.3 and a protein stability index (treatment: MLN4924 1 uM, 8 h) of 3.18 ± 0.39.
For TSPAKDSLSFEDFLDLLSVFSDTA [CIB1], the protein stability index (treatment: DMSO) was 2.28 ± 0.1 and the protein stability index (treatment: MLN4924 1 uM, 8 h) was 2.45 ± 0.27.
For TSRTQVYKPPALKKSNSPGTASSG [ZC2HC1A], the protein stability index (treatment: DMSO) was 4.42 ± 0.15 and the protein stability index (treatment: MLN4924 1 uM, 8 h) was 4.46 ± 0.17.
Sequence TTGIVETHFTFKDLHFKMFDVGGQ [GNAI1] has a protein stability index (treatment: DMSO) of 2.08 ± 0.35 and a protein stability index (treatment: MLN4924 1 uM, 8 h) of 2.27 ± 0.14.
TTLGPKLASQALTPPPGPASAQPL [TFE3] showed a protein stability index (treatment: DMSO) of 4.4 ± 0.48 and a protein stability index (treatment: MLN4924 1 uM, 8 h) of 4.4 ± 0.18.
Work on TVEERQTGMWWRHLVAGGGAGAVS [SLC25A25] yielded a protein stability index (treatment: DMSO) of 2.98 ± 0.39 and a protein stability index (treatment: MLN4924 1 uM, 8 h) of 2.96 ± 0.43.
In the case of TVEPGKLDVGATEGQDLQHISNQK [DRICH1], the protein stability index (treatment: DMSO) is reported as 5.43 ± 0.23 and the protein stability index (treatment: MLN4924 1 uM, 8 h) is reported as 5.4 ± 0.4.
Work on TVLTRSLFLGRILSLTSSASRLLT [FANCE] yielded a protein stability index (treatment: DMSO) of 2.72 ± 0.13 and a protein stability index (treatment: MLN4924 1 uM, 8 h) of 2.81 ± 0.2.
Work on TWKSGKQTMLSHYRPFYVNKGNGI [TRIM29] yielded a protein stability index (treatment: DMSO) of 2.36 ± 0.41 and a protein stability index (treatment: MLN4924 1 uM, 8 h) of 2.4 ± 0.2.
TYLCERCQPRNLDKERAVLLQRRK [KMT2E] showed a protein stability index (treatment: DMSO) of 2.57 ± 0.48 and a protein stability index (treatment: MLN4924 1 uM, 8 h) of 3.32 ± 0.54.
VACFLTRGDLWISWEEGMKVFEEL [CRY1] showed a protein stability index (treatment: DMSO) of 2.67 ± 0.71 and a protein stability index (treatment: MLN4924 1 uM, 8 h) of 2.33 ± 0.39.
Sequence VAGEGVRRKGEMGLSAEDGVWAVI [TRIM15] has a protein stability index (treatment: DMSO) of 2.51 ± 0.22 and a protein stability index (treatment: MLN4924 1 uM, 8 h) of 2.55 ± 0.2.
Work on VARILIDLCSDVNVCSLLAQTPLH [RIPK4] yielded a protein stability index (treatment: DMSO) of 2.65 ± 0.26 and a protein stability index (treatment: MLN4924 1 uM, 8 h) of 2.57 ± 0.4.
For VASGLQFDVETRHVFIGDHSGQVT [WDFY2], the protein stability index (treatment: DMSO) was 2.91 ± 0.54 and the protein stability index (treatment: MLN4924 1 uM, 8 h) was 3.12 ± 0.46.
Work on VAVALRKPDGSRHQDVPSQDDSKP [AASDHPPT] yielded a protein stability index (treatment: DMSO) of 5.15 ± 0.26 and a protein stability index (treatment: MLN4924 1 uM, 8 h) of 5 ± 0.17.
For VCALSALPAGPLPAPLLVLCPSRA [PLEKHN1], the protein stability index (treatment: DMSO) was 2.12 ± 0.2 and the protein stability index (treatment: MLN4924 1 uM, 8 h) was 2.18 ± 0.16.
In the case of VCVRAHESVVKSEDFSLPAYMDRR [COX4I1], the protein stability index (treatment: DMSO) is reported as 3.1 ± 0.43 and the protein stability index (treatment: MLN4924 1 uM, 8 h) is reported as 3.14 ± 0.24.
For VDKDQPSILNSCEDPVPGMLFFLP [FBXO34], the protein stability index (treatment: DMSO) was 3.32 ± 0.39 and the protein stability index (treatment: MLN4924 1 uM, 8 h) was 3.02 ± 0.36.
For VDLNRNFPDLNTYIYYNEKYGGPN [CPN1], the protein stability index (treatment: DMSO) was 2.64 ± 0.18 and the protein stability index (treatment: MLN4924 1 uM, 8 h) was 2.53 ± 0.52.
Work on VEFDVLPAFDALGQLTGGYKPNPQ [OAS1] yielded a protein stability index (treatment: DMSO) of 2.85 ± 0.27 and a protein stability index (treatment: MLN4924 1 uM, 8 h) of 2.9 ± 0.21.
VEGKGNGIKTVIVNMVDVAKALNR [EIF5] showed a protein stability index (treatment: DMSO) of 2.14 ± 0.21 and a protein stability index (treatment: MLN4924 1 uM, 8 h) of 2.22 ± 0.31.
Sequence VETELQRRNEETPEEGQQPWLCGE [GDAP1] has a protein stability index (treatment: DMSO) of 5.38 ± 0.1 and a protein stability index (treatment: MLN4924 1 uM, 8 h) of 5.5 ± 0.15.
With VEVLVDLFLKEGACDELFSYLIEK [PRAME] the protein stability index (treatment: DMSO) was 2.55 ± 0.66 and the protein stability index (treatment: MLN4924 1 uM, 8 h) was 3.03 ± 0.58.
In the case of VFAHCKEAPSTASSTPDSTEGGND [RTN2], the protein stability index (treatment: DMSO) is reported as 5.42 ± 0.33 and the protein stability index (treatment: MLN4924 1 uM, 8 h) is reported as 5.37 ± 0.37.
With VFCREGPTHQAHTVGFLDEAIQPY [TRIM15] the protein stability index (treatment: DMSO) was 2.85 ± 0.31 and the protein stability index (treatment: MLN4924 1 uM, 8 h) was 2.83 ± 0.24.
Work on VFLVSCALPDSVLRRFVVRTMCAV [AUP1] yielded a protein stability index (treatment: DMSO) of 2.71 ± 0.49 and a protein stability index (treatment: MLN4924 1 uM, 8 h) of 2.67 ± 0.068.
In the case of VGGQDTGATWRTSGLLEELNAEAG [C18orf25], the protein stability index (treatment: DMSO) is reported as 4.57 ± 0.2 and the protein stability index (treatment: MLN4924 1 uM, 8 h) is reported as 4.59 ± 0.34.
Sequence VGKSLTILGRTFFIYDCDPFTRRY [EFHC1] has a protein stability index (treatment: DMSO) of 2.47 ± 0.54 and a protein stability index (treatment: MLN4924 1 uM, 8 h) of 2.7 ± 0.54.
In the case of VGLAAVNSMPVDNRNHNEGMVTRC [CHGB], the protein stability index (treatment: DMSO) is reported as 4.27 ± 0.23 and the protein stability index (treatment: MLN4924 1 uM, 8 h) is reported as 4.3 ± 0.37.
VGYTRGLHVWQITWAMRQRGTHAV [SPSB1] gave a protein stability index (treatment: DMSO) of 2.37 ± 0.52 and a protein stability index (treatment: MLN4924 1 uM, 8 h) of 2.55 ± 0.52.
Sequence VIKGVLFRIFIIWAISSWFRRGPA [CLPTM1] has a protein stability index (treatment: DMSO) of 2.75 ± 0.58 and a protein stability index (treatment: MLN4924 1 uM, 8 h) of 2.87 ± 0.68.
VITALKCHKYDRNIQVTGSAALFY [ZER1] gave a protein stability index (treatment: DMSO) of 2.84 ± 0.18 and a protein stability index (treatment: MLN4924 1 uM, 8 h) of 2.85 ± 0.47.
Work on VKFCLLGALLAPIRVLLAFIVLFL [LPCAT4] yielded a protein stability index (treatment: DMSO) of 2.15 ± 0.29 and a protein stability index (treatment: MLN4924 1 uM, 8 h) of 1.86 ± 0.2.
Work on VKLLVDLELSYGFENGQKAAVVHH [TOR1AIP2] yielded a protein stability index (treatment: DMSO) of 2.22 ± 0.26 and a protein stability index (treatment: MLN4924 1 uM, 8 h) of 2.3 ± 0.12.
With VKTKKNAPSATIHQGEEEGPLDIW [FBXO34] the protein stability index (treatment: DMSO) was 4.21 ± 0.2 and the protein stability index (treatment: MLN4924 1 uM, 8 h) was 4.4 ± 0.25.
VLEIEQSMNRVKNISDADVHNAMD [FEM1B] gave a protein stability index (treatment: DMSO) of 4.13 ± 0.14 and a protein stability index (treatment: MLN4924 1 uM, 8 h) of 4.32 ± 0.23.
With VLKLLLLLLLFGVAGGLVACRVTE [LRRC59] the protein stability index (treatment: DMSO) was 2.77 ± 0.73 and the protein stability index (treatment: MLN4924 1 uM, 8 h) was 2.68 ± 0.81.
Sequence VLMDTQGAFDSQSTVKDCATIFAL [ATL3] has a protein stability index (treatment: DMSO) of 2.48 ± 0.35 and a protein stability index (treatment: MLN4924 1 uM, 8 h) of 2.55 ± 0.21.
In the case of VLTDSNHVPLQRLSLLVHNVSVMH [FBXO33], the protein stability index (treatment: DMSO) is reported as 1.96 ± 0.3 and the protein stability index (treatment: MLN4924 1 uM, 8 h) is reported as 2.22 ± 0.28.
For VMAWVKYSIQERRPQLPQVLQHVR [KLHL20], the protein stability index (treatment: DMSO) was 2.41 ± 0.37 and the protein stability index (treatment: MLN4924 1 uM, 8 h) was 2.04 ± 0.34.
VNGSWYIQDLCEMLGKYGSSLEFT [CASP6] gave a protein stability index (treatment: DMSO) of 2.95 ± 0.65 and a protein stability index (treatment: MLN4924 1 uM, 8 h) of 2.67 ± 0.55.
Sequence VNKLKWNLAAMTPHDFIEHFLSKM [CCND1] has a protein stability index (treatment: DMSO) of 2.25 ± 0.35 and a protein stability index (treatment: MLN4924 1 uM, 8 h) of 2.51 ± 0.25.
VPQIFKYGETCFPKGRFERKRNPS [ZNF24] gave a protein stability index (treatment: DMSO) of 3.8 ± 0.76 and a protein stability index (treatment: MLN4924 1 uM, 8 h) of 3.93 ± 1.1.
VPSEEPQESDQTEEHESGIEQFSE [IQUB] gave a protein stability index (treatment: DMSO) of 5.69 ± 0.13 and a protein stability index (treatment: MLN4924 1 uM, 8 h) of 5.57 ± 0.38.

Source: the supplement of paper PMC10567573
